Biological target: latrunculin B bound actin (A. castellani actin monomer) (A. castellani)
Assay: fluorescence polarisation

| Binder | stoichiometry N |
| --- | --- |
| SD3C (Spir SD and SC reversed around Linker 3) (domain or fragment) PREQLMESIRKGKELKQISDRQLGPPRMCEPSKKDAHAMILEFIRSRPPLKKA | 1 actin monomer per construct |
| SC[gs]D (Spir SC and SD with Linker 3 replaced by five Gly-Ser repeats) (domain or fragment) KKDAHAMILEFIRSRPPLKKAGSGSGSGSGSPREQLMESIRKGKELKQITPPE | 1 actin monomer per construct |

Source: paper PMC4324353 (Journal of molecular biology, 2014)
